The values below come from US20140296131A1 (Novo Nordisk, published 2014).

Where no end group is shown, it is not given here. [ ]: non-standard residue; d: D form. Aib = CC(C)(N)C(=O)O

The IC50 is the point on the concentration scale where inhibition reaches its midpoint. High values mean a need for much substance, low ones inhibition by little substance.

For test [1], the target named is isolated N-terminal extracellular domain of the GLP-1 receptor (nGLP-1R) (UniProt P43220). Put plainly: SPA competition: displacement of 125I-Exendin-4(9-39) from nGLP-1R. (In general: In a radioligand displacement assay an active substance lowers the binding of a labelled ligand.)
The target of test [2] is T1, human GLP-1 receptor (human, UniProt P43220 24-463). Put plainly: cell-based or functional assay.
Test [3] addresses T1, human GLP-1 receptor. Put plainly: SPA competition: displacement of 125I-GLP-1 from BHK tk-ts13 membranes with the human GLP-1 receptor. The procedure: Test compounds/peptides, membranes, SPA-particles and [¹²⁵I] are diluted in assay buffer. 25 ul (micro liter) of test compounds/peptides are added to Optiplate. Buffer is added (50 ul). Add 5-10 ug protein/sample (50 ul) corresponding to 0.1-0.2 mg protein/ml (to be preferably optimised for each membrane preparation). Add SPA-particles (Wheatgerm agglutinin SPA beads) RPNQ 0001) 0.5 mg/well (50 ul). […] The plates are sealed with PlateSealer. Incubate for 120 minutes at 30° C. while shaking. The plates are centrifuged (1500 rpm, 10 min) and counted in Topcounter.

Test [4] concerns the target T2, isolated N-terminal extracellular domain of the GLP-1 receptor (nGLP-1R) (UniProt P43220 24-145, limits assumed, biotinylated with BNHS, immobilized on streptavidin-coated SPA beads).
T2 construct: extracellular domain; also called N-terminal GLP-1 receptor
As to the kind of experiment: SPA competition: displacement of 125I-Exendin-4(9-39) from biotinylated nGLP-1R on streptavidin SPA beads. The method, then: The nGLP1R in 0.1M NaHCO₃ was biotinylated using 75 μg BNHS (Sigma H1759) to 1 mg protein. The biotinylated nGLP1R was subsequently dialyzed against PBS. All reagents and derivatives were diluted in PBS with 0.05% v/v Tween 20. […] The plates were incubated on a shaker at RT for 3 hours. The SPA particles were spun down by centrifugation for 10 min at 1500 rpm and the plates were counted in a TopCount-NXT (PerkinElmer).

Consider liraglutide (peptide), for which the half-maximal inhibitory concentration (IC50) in test [1] is 1500 nM. This counts as single-digit micromolar.

B1: [Aib8, Lys20, Glu22, Val25, Arg26, Glu30] GLP-1 (7-33) Amide (peptide)
peptide: H[Aib]EGTFTSDVSSYKEEQAVREFIEWLV-NH2
modifications: N-terminus assumed
SMILES: CC[C@H](C)[C@H](NC(=O)[C@H](Cc1ccccc1)NC(=O)[C@H](CCC(=O)O)NC(=O)[C@H](CCCNC(=N)N)NC(=O)[C@@H](NC(=O)[C@H](C)NC(=O)[C@H](CCC(N)=O)NC(=O)[C@H](CCC(=O)O)NC(=O)[C@H](CCC(=O)O)NC(=O)[C@H](CCCCN)NC(=O)[C@H](Cc1ccc(O)cc1)NC(=O)[C@H](CO)NC(=O)[C@H](CO)NC(=O)[C@@H](NC(=O)[C@H](CC(=O)O)NC(=O)[C@H](CO)NC(=O)[C@@H](NC(=O)[C@H](Cc1ccccc1)NC(=O)[C@@H](NC(=O)CNC(=O)[C@H](CCC(=O)O)NC(=O)C(C)(C)NC(=O)[C@@H](N)Cc1c[nH]cn1)[C@@H](C)O)[C@@H](C)O)C(C)C)C(C)C)C(=O)N[C@@H](CCC(=O)O)C(=O)N[C@@H](Cc1c[nH]c2ccccc12)C(=O)N[C@@H](CC(C)C)C(=O)N[C@H](C(N)=O)C(C)C
For the molecule B1, in test [2], the “EC50 (potency, stimulation of cAMP formation)” value (shortened to “EC50”) was less than 0.3 nM. On the same count and under the same terms, the figure for HAEGTFTSDVSSYLEEQAAREFIAWLV-OH [[Glu22, Arg26]GLP-1(7-33)peptide] is less than 0.3 nM. The same measure, in the same setting: for HAEGTFTSDVSSYLEEQAAREFIAWLV-NH2 [[Glu22, Arg26]GLP-1 (7-33) Amide] the value was less than 0.3 nM.

B2: truncated natural, human GLP-1(7-33) (peptide)
peptide: HAEGTFTSDVSSYLEGQAAKEFIAWLV
modifications: ends and bridges not checked
notes: also called truncated natural GLP-1; truncated natural GLP-1(7-3)) peptide
Turning to B2, the figures for the 50% inhibitory concentration (IC50) in test [3] and in test [4] were 241 nM and 886 nM, respectively. Further, in test [2], the “EC50” value came to 11.3 nM. As to HAEGTFTSDVSSYLEEQAVREFIAWLV-NH2 [[Glu22, Val25, Arg26] GLP-1 (7-33)amide], the “EC50” value in test [2] was less than 0.3 nM.
